Each substance was assayed on CC(C)CC1CC(=O)NC(=O)C1 (assay: purified protein). Settings: 50 mmol L^-1 Tris-HCl pH 8.0, 40 °C, IBI 0.10-2.0 mg mL^-1.
Assay type: biochemical, Paraburkholderia phytofirmans

Substance	Km [mM]	kcat [s⁻¹]	kcat/Km [M⁻¹ s⁻¹]
BpIH (Paraburkholderia phytofirmans PsJN)	9.02 ± 0.51	0.00967 ± 0.0075	1.07
BpIH (Paraburkholderia phytofirmans PsJN; H133N/S226I/Y37F)	7.31 ± 0.73	0.0573 ± 0.005	7.82
BpIH (Paraburkholderia phytofirmans PsJN; H133N/S226L/Y37F)	8.48 ± 1.03	0.052 ± 0.00367	5.67
BpIH (Paraburkholderia phytofirmans PsJN; S226L)	9.28 ± 1.09	0.0517 ± 0.00617	5.47
